In publication doi:10.1101/2022.05.30.494040:

Tests used:
[1] = molecular target: full-length Stx2 (human) (UniProt P32856); experiment: AlphaScreen or HTRF
[2] = molecular target: full-length Stx4 (UniProt Q12846); experiment: AlphaScreen or HTRF
[3] = molecular target: full-length SNAP23 (UniProt O00161); experiment: AlphaScreen or HTRF
[4] = molecular target: Stx3 145-161 peptides (human) (UniProt Q13277); experiment: peptide or protein array
[5] = molecular target: SNAP25 (human) (UniProt P60880); experiment: AlphaScreen or HTRF
Sequence of UniProt P60880 (P60880 whole entry): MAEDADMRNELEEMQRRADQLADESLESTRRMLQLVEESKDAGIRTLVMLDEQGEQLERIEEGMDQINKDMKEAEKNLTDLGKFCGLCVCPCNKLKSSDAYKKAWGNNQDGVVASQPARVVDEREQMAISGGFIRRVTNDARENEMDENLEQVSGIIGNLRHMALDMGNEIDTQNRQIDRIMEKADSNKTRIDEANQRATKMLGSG

Sequence of UniProt O00161 (O00161 whole entry): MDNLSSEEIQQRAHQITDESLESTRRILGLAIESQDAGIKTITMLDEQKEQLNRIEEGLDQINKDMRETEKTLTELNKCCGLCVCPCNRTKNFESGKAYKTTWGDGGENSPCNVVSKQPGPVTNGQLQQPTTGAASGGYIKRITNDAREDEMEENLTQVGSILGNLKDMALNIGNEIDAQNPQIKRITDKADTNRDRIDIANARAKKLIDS
Sequence of UniProt Q12846 (Q12846 whole entry): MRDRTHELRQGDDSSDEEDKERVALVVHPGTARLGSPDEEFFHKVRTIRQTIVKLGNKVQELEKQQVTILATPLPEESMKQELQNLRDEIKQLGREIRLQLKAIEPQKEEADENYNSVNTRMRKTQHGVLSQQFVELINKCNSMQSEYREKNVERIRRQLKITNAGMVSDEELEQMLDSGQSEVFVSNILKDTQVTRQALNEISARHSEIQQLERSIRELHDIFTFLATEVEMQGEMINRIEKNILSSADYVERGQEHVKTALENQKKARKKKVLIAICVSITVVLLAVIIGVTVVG
Sequence of UniProt P32856 (P32856 whole entry): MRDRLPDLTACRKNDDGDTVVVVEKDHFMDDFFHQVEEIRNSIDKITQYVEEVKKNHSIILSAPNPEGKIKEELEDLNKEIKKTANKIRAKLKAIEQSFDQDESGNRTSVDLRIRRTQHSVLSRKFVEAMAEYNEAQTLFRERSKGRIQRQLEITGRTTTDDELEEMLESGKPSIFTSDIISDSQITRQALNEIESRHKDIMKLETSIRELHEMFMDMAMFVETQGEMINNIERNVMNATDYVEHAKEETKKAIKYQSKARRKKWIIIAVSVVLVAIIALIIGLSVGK

Row | Substance | EC50 [1] [nM] | EC50 [2] [nM] | EC50 [3] [nM] | fold weaker binding than Stx2 144-160 [4] [fold] | EC50 [5] [nM]
1 | His-tagged recombinant Gβ1γ2 (from UniProt P62873;P59768) (complex) | 64.8 | 92.1 | 78.2 | 5 | 
2 | His-tagged recombinant Gβ1γ2 (from UniProt P62873;P59768) (complex; other documents disagree on this pair) |  |  |  |  | 45.2
